Data on 4 molecules can be found in US20170015742A1 (published 2017).

For experiment [1], the target named is T1, recombinant mouse VEGF-R2-Fc (R&D Systems cat#443-KD) (mouse, UniProt P35918 20-762).
T1 construct: Bought reagent; also called mVEGFR2-Fc; mVEGF-R2; not shown: Fc part of the bought fusion protein
As to the kind of experiment: competition ELISA: antibody on coated mVEGFR2-Fc against mVEGF164 (Example 1.25).

In experiment [2] the target is T2, recombinant human VEGF-R2-Fc (R&D Systems cat#357-KD) (human, UniProt P35968 20-764).
T2 construct: Bought reagent; also called hVEGFR2-Fc; hVEGF-R2 (KDR/Flk-1); not shown: Fc part of the bought fusion protein
T2 sequence (P35968 20-764 limits assumed): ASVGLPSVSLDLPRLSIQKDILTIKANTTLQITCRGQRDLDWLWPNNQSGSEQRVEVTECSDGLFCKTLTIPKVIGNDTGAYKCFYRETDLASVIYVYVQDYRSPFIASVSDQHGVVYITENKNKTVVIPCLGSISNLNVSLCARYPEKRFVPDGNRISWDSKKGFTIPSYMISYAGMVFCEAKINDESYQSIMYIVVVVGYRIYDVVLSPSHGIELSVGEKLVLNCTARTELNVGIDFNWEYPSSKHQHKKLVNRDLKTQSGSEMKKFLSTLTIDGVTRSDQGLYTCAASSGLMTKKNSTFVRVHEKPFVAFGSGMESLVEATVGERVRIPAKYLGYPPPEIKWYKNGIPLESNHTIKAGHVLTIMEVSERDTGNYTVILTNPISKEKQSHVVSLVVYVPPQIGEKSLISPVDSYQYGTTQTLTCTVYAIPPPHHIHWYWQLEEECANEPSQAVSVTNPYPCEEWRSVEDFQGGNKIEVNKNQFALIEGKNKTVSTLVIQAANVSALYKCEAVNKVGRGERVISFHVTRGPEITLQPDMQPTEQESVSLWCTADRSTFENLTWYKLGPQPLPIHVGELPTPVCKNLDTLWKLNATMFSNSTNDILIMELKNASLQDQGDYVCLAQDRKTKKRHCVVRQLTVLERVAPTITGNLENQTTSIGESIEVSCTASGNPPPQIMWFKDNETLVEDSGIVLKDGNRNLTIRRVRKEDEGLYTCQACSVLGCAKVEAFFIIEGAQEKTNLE
Briefly: competition ELISA: antibody on coated hVEGFR2-Fc against biotinylated hVEGF165 (Example 1.23). Here is the method: (§1) To identify molecules which could block the binding of VEGF-R2 (KDR/Flk-1) to hVEGF₁₆₅, a competition ELISA was performed. […] Plates were then washed four times with wash buffer (TBS, 0.05% Tween-20) and blocked with Superblock blocking buffer (Thermo Scientific, cat#37535). […] The samples were added to wells and incubated for 30 minutes at 25° C. with shaking. […] Following incubation, plates were washed four times with wash buffer. Streptavidin-polyHRP-40 (Fitzgerald cat#65r-s104phrp) was diluted in assay diluent (10% Superblock containing 0.05% surfactamps) and added to plates (50 μL) for 45 minutes at 25° C. with shaking. Plates were washed four times with wash buffer and developed with the addition of Enhanced K-blue TMB substrate (Neogen cat#308177). The reaction was stopped with 2N sulfuric acid (VWR, cat# BDH3500-1) and the absorbance was read at 450 nm-570 nm. A decrease in observed optical density indicates the test molecule is blocking the human VEGF-R2-Fc binding to hVEGF₁₆₅. Data was analyzed using Softmax Pro 4.8 software and IC₅₀ values calculated using a sigmoidal dose response (variable slope) fit in GraphPad Prism 5.

The target of experiment [3] is T3, recombinant human VEGF-R2-Fc (human, UniProt P35968 20-764).
T3 construct: also called hVEGFR2-Fc; KDR/Flk-1; not shown: Fc part of the bought fusion protein
T3 sequence (P35968 20-764 limits assumed): as above
Briefly: competition ELISA: antibody added to coated hVEGF-R2-Fc, then biotin-hVEGF165. Here is the method: as §1
For orientation: ELISA stands for enzyme-linked immunosorbent assay.

Experiment [4] addresses T4, recombinant human PDGF-Rβ-Fc (R&D Systems #385-PR) (human, UniProt P09619 33-530).
T4 construct: Bought reagent; also called hPDGFRβ-Fc; huPDGF Rβ; not shown: Fc part of the bought fusion protein
Briefly: direct ELISA on coated recombinant human PDGF-Rβ-Fc (Example 1.26). Here is the method:
Plates were then washed four times with wash buffer (TBS, 0.05% Tween-20) and blocked with Superblock blocking buffer (Thermo Scientific, cat#37535). During the blocking step, supernatants, antibodies and benchmark compounds were diluted in assay diluent (10% Superblock containing 0.05% surfactamps) and an eight point titration of each sample molecule was performed. […] Following incubation, plates were washed four times with wash buffer. […] Plates were washed four times with wash buffer and developed with the addition of Enhanced K-blue TMB substrate (Neogen, cat#308177). The reaction was stopped with 2N sulfuric acid (VWR, cat# BDH3500-1) and the absorbance was read at 450 nm-570 nm. […] Data was analyzed using Softmax Pro 4.8 software and IC₅₀ values calculated using a sigmoidal dose response (variable slope) fit in GraphPad Prism 5.

Experiment [5] deals with T5, mouse VEGF (PR-1578904) (mouse, UniProt Q00731 205-392).
T5 construct: also called mVEGF164
T5 chain: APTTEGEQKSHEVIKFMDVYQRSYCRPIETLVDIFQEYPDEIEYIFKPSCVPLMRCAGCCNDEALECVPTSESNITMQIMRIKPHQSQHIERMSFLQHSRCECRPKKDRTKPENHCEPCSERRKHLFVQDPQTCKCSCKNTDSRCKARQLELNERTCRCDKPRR
As to the kind of experiment: SPR (Biacore), mAb captured by anti-human Fc, antigen injected. Here is the method:
Unreacted moieties on the biosensor surface were blocked with ethanolamine. For kinetic analysis, rate equations derived from the 1:1 Langmuir binding model were fitted simultaneously to multiple antigen injections (using global fit analysis) with the use of Scrubber 2 (BioLogic Software), Biacore Biaevaluation 4.0.1 software or Biacore T100 Evaluation software. Purified antibodies or DVD-Ig molecules were diluted in running buffer for capture across goat anti-human Fc reaction surfaces. Antibodies or DVD-Ig molecules to be captured as a ligand (1 μg/ml) were injected over reaction matrices at a flow rate of 10 μl/minute. During the assay, all measurements were referenced against the capture surface alone (i.e., with no captured antibody or DVD-Ig molecule). […] The equilibrium dissociation constant KD (M) of the reaction between antibodies and the target antigen was then calculated from the kinetic rate constants by the following formula: KD=Koff/Kₒₙ. Binding was recorded as a function of time and kinetic rate constants were calculated. In this assay, on-rates as fast as 10⁶M⁻¹s⁻¹ and off-rates as slow as 10⁻⁶ s⁻¹ could be measured.
(In general: Surface plasmon resonance follows binding to a sensor surface in real time, without labels.)

T1 sequence (P35918 20-762 limits assumed): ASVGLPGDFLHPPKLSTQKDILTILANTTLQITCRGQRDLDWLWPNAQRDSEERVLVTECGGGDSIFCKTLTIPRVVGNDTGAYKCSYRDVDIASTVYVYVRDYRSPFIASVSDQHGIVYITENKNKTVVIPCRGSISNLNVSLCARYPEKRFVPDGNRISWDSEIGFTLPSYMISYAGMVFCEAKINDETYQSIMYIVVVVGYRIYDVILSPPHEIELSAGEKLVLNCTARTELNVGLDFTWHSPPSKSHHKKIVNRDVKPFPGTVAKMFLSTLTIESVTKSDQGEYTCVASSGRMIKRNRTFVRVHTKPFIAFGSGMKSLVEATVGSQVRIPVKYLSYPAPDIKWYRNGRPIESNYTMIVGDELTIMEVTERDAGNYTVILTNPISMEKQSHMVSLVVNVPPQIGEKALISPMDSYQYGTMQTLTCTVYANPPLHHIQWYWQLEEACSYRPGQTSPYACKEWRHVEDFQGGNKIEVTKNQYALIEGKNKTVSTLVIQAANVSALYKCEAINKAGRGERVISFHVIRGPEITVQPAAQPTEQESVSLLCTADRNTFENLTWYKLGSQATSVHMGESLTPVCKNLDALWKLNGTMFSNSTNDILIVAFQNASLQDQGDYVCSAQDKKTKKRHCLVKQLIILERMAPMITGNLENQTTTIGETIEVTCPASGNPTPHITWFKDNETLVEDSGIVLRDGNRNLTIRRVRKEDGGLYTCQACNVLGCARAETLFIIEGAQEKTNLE
T4 sequence (P09619 33-530 limits assumed): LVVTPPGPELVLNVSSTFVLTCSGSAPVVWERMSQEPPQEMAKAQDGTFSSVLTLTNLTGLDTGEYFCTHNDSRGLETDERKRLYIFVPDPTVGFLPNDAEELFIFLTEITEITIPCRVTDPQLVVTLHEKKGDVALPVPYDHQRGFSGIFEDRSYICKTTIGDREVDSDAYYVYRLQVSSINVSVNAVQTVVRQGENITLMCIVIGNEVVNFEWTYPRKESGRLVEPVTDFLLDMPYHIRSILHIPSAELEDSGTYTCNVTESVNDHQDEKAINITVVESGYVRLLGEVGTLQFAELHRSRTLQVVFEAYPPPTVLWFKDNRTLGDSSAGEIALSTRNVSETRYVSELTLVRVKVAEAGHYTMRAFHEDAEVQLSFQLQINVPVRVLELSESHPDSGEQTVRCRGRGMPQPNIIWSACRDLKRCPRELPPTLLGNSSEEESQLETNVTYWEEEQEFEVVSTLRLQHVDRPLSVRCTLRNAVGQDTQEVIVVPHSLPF

B1: BCU-6B1-G6 (antibody, V domains shown)
VH: QIQLVQSGPELKKPGESVKISCKASGYTFTNYGMYWVKQAPGQALQFMGWINTETGQPTYADDFKGRFVFFLETSASTAYLQINNLKNEDMATYFCARLGNNYGIWFAYWGQGTLVTVSS
VL: DIQMTQSPASLSASLGETVTIECRASDDLYSTLAWYQQKPGDSPQLLIFDANRLAAGVPSRFSGSGSGTQYSLKINSLQSEDVASYFCQQYNKFPWTFGGGTKLELK
notes: Rat hybridoma anti-human VEGFR II monoclonal antibody, isotype IgG2a/κ
Regarding B1, the IC50 (as a rule, the concentration at which inhibition is half-maximal) in experiment [1] was 1.35 nM; in experiment [2], 4.85 nM.

B2: chBCU-6B1-G6 (antibody, V domains shown)
VH: B1 VH
VL: B1 VL
notes: also called chimeric BCU-6B1-G6
Take B2: the IC50 in experiment [3] stood at 0.498 nM.

B3: BDE-8H6-F7 (antibody, V domains shown)
VH: EVQLVESGGGLVQPGSSLKLSCLASGFTFSNYNMYWIRQAPKKGLEWIALIFYDNNNKYYADSVKGRFTISRDNSKNTLYLEMNSLRSEDTAMYYCLRDSGPFSYWGQGTLVTVSS
VL: DIQMTQSPPSLSASLGDKVTINCQAGQNIKKYIAWYQQEPGKVPRLLIRYTSKLESDTPSRFSGSGSGRDYSFSISNVESEDIASYYCLQYDNLPWTFGGGTKLELK
notes: Rat hybridoma anti-human PDGFR-B monoclonal antibody
Turning to B3, the binding result in experiment [4] is given as “binds”.

B4: AB014 (Avastin), PR-1545939 (antibody, V domains shown)
VH: EVQLVESGGGLVQPGGSLRLSCAASGYTFTNYGMNWVRQAPGKGLEWVGWINTYTGEPTYAADFKRRFTFSLDTSKSTAYLQMNSLRAEDTAVYYCAKYPHYYGSSHWYFDVWGQGTLVTVSS
VL: DIQMTQSPSSLSASVGDRVTITCSASQDISNYLNWYQQKPGKAPKVLIYFTSSLHSGVPSRFSGSGSGTDFTLTISSLQPEDFATYYCQQYSTVPWTFGQGTKVEIK
notes: Anti-VEGF-A mAb
As for B4, the binding result in experiment [5] is “no binding”.
